# Where two headings read alike, the source gives them in different places.
# T1: cynomolgus monkey CD25 (cynomolgus monkey, UniProt H6WS54 22-272)
# T1 construct: whole, on cells; also called cynoCD25
# T1 sequence: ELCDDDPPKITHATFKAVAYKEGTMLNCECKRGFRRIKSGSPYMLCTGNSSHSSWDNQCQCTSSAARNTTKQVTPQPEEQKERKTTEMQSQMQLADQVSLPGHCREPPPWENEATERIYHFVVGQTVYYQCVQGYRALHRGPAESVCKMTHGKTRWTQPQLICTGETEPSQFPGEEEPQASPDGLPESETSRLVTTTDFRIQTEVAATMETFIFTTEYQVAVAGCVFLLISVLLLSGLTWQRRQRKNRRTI
# T2: human CD25 (human, UniProt P01589 22-272)
# T2 construct: whole, on cells; Always presented on cells; also called huCD25; IL2Rα
# T2 sequence (looked up): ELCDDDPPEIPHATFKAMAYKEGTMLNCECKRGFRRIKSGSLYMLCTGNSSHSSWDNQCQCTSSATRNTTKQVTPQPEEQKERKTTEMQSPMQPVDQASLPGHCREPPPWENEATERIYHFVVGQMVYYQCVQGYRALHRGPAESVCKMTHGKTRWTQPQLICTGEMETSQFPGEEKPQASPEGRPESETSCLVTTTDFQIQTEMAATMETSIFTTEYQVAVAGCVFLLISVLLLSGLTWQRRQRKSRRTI
# How the values were obtained:
# cynomolgus monkey CD25 [1] = target: T1, cynomolgus monkey CD25; experiment: flow cytometry, HEK293-cynoCD25 cells
# Procedure: (§1) This example was intended to study the in-vitro binding activity of H2L2 monoclonal antibodies against human CD25 to human/cynomolgus monkey CD25. […] Briefly, the CHOK1-huCD25 cells and HEK293-cynoCD25 cells were digested, the SU-DHL-1 cells, Karpas299 cells, Treg cells and Teff cells were collected, and the cells were resuspended in PBS containing 2% BSA. The cells were adjusted to a cell density of 1×10⁶ cells/mL, respectively. […] The cells were incubated at 4° C. for 1 hour in the dark. After the incubation, the cells were rinsed twice by adding pre-chilled PBS containing 2% BSA at 100 μL/well, and centrifuged at 500 g at 4° C. for 5 minutes, and the supernatant was discarded. […] The cells were washed twice by adding pre-chilled PBS containing 2% BSA at 100 μL/well, and centrifuged at 500 g at 4° C. for 5 minutes, and the supernatant was discarded. Finally, the cells were resuspended in pre-chilled PBS containing 2% BSA at 200 μL/well, and the fluorescence signal values were read using a BD CantoII flow cytometer.
# cynomolgus monkey CD25 [2] = target: T1, cynomolgus monkey CD25; experiment: flow cytometry, HEK293-cynoCD25 cells; remark: listed apart in the source
# Procedure: as §1
# human CD25 [3] = target: T2, human CD25; experiment: flow cytometry, Karpas299 cells
# human CD25 [4] = target: T2, human CD25; experiment: flow cytometry, SU-DHL-1 cells
# Procedure: (§2) Briefly, the CHOK1-huCD25 cells and HEK293-cynoCD25 cells were digested, the SU-DHL-1 cells, Karpas299 cells, Treg cells and Teff cells were collected, and the cells were resuspended in PBS containing 2% BSA. The cells were adjusted to a cell density of 1×10⁶ cells/mL, respectively. […] The cells were incubated at 4° C. for 1 hour in the dark. After the incubation, the cells were rinsed twice by adding pre-chilled PBS containing 2% BSA at 100 μL/well, and centrifuged at 500 g at 4° C. for 5 minutes, and the supernatant was discarded. […] The cells were washed twice by adding pre-chilled PBS containing 2% BSA at 100 μL/well, and centrifuged at 500 g at 4° C. for 5 minutes, and the supernatant was discarded. Finally, the cells were resuspended in pre-chilled PBS containing 2% BSA at 200 μL/well, and the fluorescence signal values were read using a BD CantoII flow cytometer.
# human CD25 [5] = target: T2, human CD25; experiment: flow cytometry, SU-DHL-1 cells; remark: listed apart in the source
# Procedure: as §2
# cynomolgus monkey CD25 [6] = target: T1, cynomolgus monkey CD25; experiment: flow cytometry, HEK293-cynoCD25 cells; remark: listed apart in the source
# Procedure: as §2
# human CD25 [7] = target: T2, human CD25; experiment: flow cytometry, SU-DHL-1 cells; remark: listed apart in the source
# Procedure: as §2
# human CD25 [8] = target: T2, human CD25; experiment: flow cytometry, Karpas299 cells; remark: listed apart in the source
# Procedure: as §1
# human CD25 [9] = target: T2, human CD25; experiment: flow cytometry, Karpas299 cells; remark: listed apart in the source
# cynomolgus monkey CD25 [10] = target: T1, cynomolgus monkey CD25; experiment: flow cytometry, HEK293-cynoCD25 cells; remark: listed apart in the source
# Procedure: as §2
# cynomolgus monkey CD25 [11] = target: T1, cynomolgus monkey CD25; experiment: flow cytometry, HEK293-cynoCD25 cells; remark: listed apart in the source
# Procedure: as §2
# cynomolgus monkey CD25 [12] = target: T1, cynomolgus monkey CD25; experiment: flow cytometry, HEK293-cynoCD25 cells; remark: listed apart in the source
# Procedure: as §2
# human CD25 [13] = target: T2, human CD25; experiment: flow cytometry, Karpas299 cells; remark: listed apart in the source
# Procedure: as §2
# human CD25 [14] = target: T2, human CD25; experiment: flow cytometry, SU-DHL-1 cells; remark: listed apart in the source
# Procedure: as §2
# human CD25 [15] = target: T2, human CD25; experiment: flow cytometry, SU-DHL-1 cells; remark: listed apart in the source
# Procedure: as §2
# human CD25 [16] = target: T2, human CD25; experiment: flow cytometry, CHOK1-huCD25 cells
# Procedure: as §1
# human CD25 [17] = target: T2, human CD25; experiment: flow cytometry, SU-DHL-1 cells; remark: listed apart in the source
# Procedure: as §2
# human CD25 [18] = target: T2, human CD25; experiment: flow cytometry, Karpas299 cells; remark: listed apart in the source
# Procedure: as §1
# human CD25 [19] = target: T2, human CD25; experiment: flow cytometry, Karpas299 cells; remark: listed apart in the source
# Procedure: as §2
# human CD25 [20] = target: T2, human CD25; experiment: flow cytometry, CHOK1-huCD25 cells; remark: listed apart in the source
# Procedure: as §2
# human CD25 [21] = target: T2, human CD25; experiment: flow cytometry, Karpas299 cells; remark: listed apart in the source
# human CD25 [22] = target: T2, human CD25; experiment: flow cytometry, Karpas299 cells; remark: listed apart in the source
# Procedure: as §1
# human CD25 [23] = target: T2, human CD25; experiment: flow cytometry, SU-DHL-1 cells; remark: listed apart in the source
# Procedure: as §2
# human CD25 [24] = target: T2, human CD25; experiment: flow cytometry, Karpas299 cells; remark: listed apart in the source
# Procedure: as §1
# human CD25 [25] = target: T2, human CD25; experiment: flow cytometry, SU-DHL-1 cells; remark: listed apart in the source
# Procedure: as §2
# human CD25 [26] = target: T2, human CD25; experiment: flow cytometry, SU-DHL-1 cells; remark: listed apart in the source
# Procedure: as §2
binder,measurement,setting,value
"RG6292 (antibody, human IgG1, kappa, V domains shown, also called PR004639; PR004639AF) VH: QVQLVQSGAEVKKPGSSVKVSCKASGGTFSSLAISWVRQAPGQGLEWMGGIIPIFGTANYAQKFQGRVTITADESTSTAYMELSSLRSEDTAVYYCARGGSVSGTLVDFDIWGQGTMVTVSS VL: not shown",EC50,cynomolgus monkey CD25 [1],6.75 nM
same,EC50,cynomolgus monkey CD25 [2],80.8 nM
same,EC50,human CD25 [3],5 nM
same,Maximum MFI,human CD25 [3],10100 MFI
same,EC50,human CD25 [4],1.28 nM
same,Maximum MFI,human CD25 [4],29700 MFI
same,EC50,human CD25 [5],3.87 nM
same,Maximum MFI,human CD25 [5],32900 MFI
same,EC50,cynomolgus monkey CD25 [6],4.33 nM
same,Maximum MFI,cynomolgus monkey CD25 [6],125000 MFI
same,EC50,human CD25 [7],0.95 nM
same,EC50,human CD25 [8],5 nM
same,EC50,human CD25 [9],5 nM
same,Maximum MFI,human CD25 [9],9560 MFI
same,EC50,cynomolgus monkey CD25 [10],80.8 nM
same,Maximum MFI,cynomolgus monkey CD25 [10],8590 MFI
same,EC50,cynomolgus monkey CD25 [11],20.9 nM
same,Maximum MFI,cynomolgus monkey CD25 [11],89700 MFI
same,EC50,cynomolgus monkey CD25 [12],40 nM
same,Maximum MFI,cynomolgus monkey CD25 [12],2660 MFI
same,EC50,human CD25 [13],14.3 nM
same,Maximum MFI,human CD25 [13],20900 MFI
same,EC50,human CD25 [14],1.4 nM
same,Maximum MFI,human CD25 [14],30700 MFI
same,EC50,human CD25 [15],1.29 nM
same,EC50,human CD25 [16],45.8 nM
same,EC50,human CD25 [17],1.35 nM
same,EC50,human CD25 [18],3.41 nM
same,EC50,human CD25 [19],30 nM
same,Maximum MFI,human CD25 [19],11800 MFI
same,EC50,human CD25 [20],40 nM
same,Maximum MFI,human CD25 [20],2660 MFI
same,EC50,human CD25 [21],30 nM
same,Maximum MFI,human CD25 [21],11800 MFI
same,EC50,human CD25 [22],2.22 nM
same,EC50,human CD25 [23],3.87 nM
same,Maximum MFI,human CD25 [23],32900 MFI
same,EC50,human CD25 [24],11.8 nM
same,EC50,human CD25 [25],1.57 nM
same,Maximum MFI,human CD25 [25],28000 MFI
same,EC50,human CD25 [26],1.28 nM
"PR008197 (antibody, human IgG1, kappa, V domains shown, PTM variant of PR005436 (VH:D26P); human IgG1) VH: QVQLQGSGPGLVKPSGTLSLTCAVSPGSISSSNWWNWVRQPPGKGLEWIGEIYHRGSTNYNPSLKSRVTISVDKSKNQFSLKLSSVTAADTAVYYCTHYYYDSSGYYYGYWGQGTLVTVSS VL: DIVMTQSPLSLPVTPGEPASISCRSSQSLLHRDVYNYVDWYLQKPGQSPQLLIYLGSNRASGVPDRFSGSGSGTDFTLKISRVEAEDVGVYYCLQALQTPLTFGGGTKVEIKR",EC50,cynomolgus monkey CD25 [2],2.25 nM
same,EC50,human CD25 [7],1.55 nM
same,EC50,human CD25 [18],8 nM
"PR008015 (antibody, human IgG1, kappa, V domains shown, PTM variant of PR006931 (VH:N54P, S60Y); human IgG1) VH: not shown VL: DFQMTQSPSTLSASVGDRVTITCRASQSISSWLAWYQQKPGKAPKLLIYEASSLKSGVPSRFSGSESGTEFTLTISSLQPDDFATYYCHQYMSYSTFGQGTKVEIKR",EC50,human CD25 [8],20 nM
same,EC50,human CD25 [26],0.85 nM
"PR006110 (antibody, V domains shown, Fully human recombinant IgG1, kappa; also called 307B8G6) VH: QVQLQESGPGLVKPSGTLSLTCAVSGGSISSSNYWSWVRQPPGKGLEWIGEIYHSGSTNYNPSLKSRVTISLDKSKNQFSLKLSSVTAADTAVYYCARDRNYGSGNYPHYYHYYGMDVWGQGTTVTVSS VL: not shown",EC50,human CD25 [15],1.95 nM
same,EC50,human CD25 [24],1.73 nM
"PR005497 (antibody, human IgG1, kappa, V domains shown, Fully human recombinant IgG1, kappa; also called 245E10F1) VH: QVQLQQSGPGLVKPSQTLSLTCAISGDSVSNNNAAWNWIRQSPSRGLEWLGRTHYRSDRSKWYNDYAVSVKSRITINSDTFKNQFSLQLNPVTPEDTAVYYCARDWDHDAFDIWGQGTMVTVSS VL: DIQMTQSPSTLSASVGDRVTITCRASQSISGWLAWYQQKPGKAPKLLIYKASSLETGVPSRFSGSGSGTEFTLTISSLQPDDFATYYCLQYNGYSTFGGGTKVEIKR",EC50,cynomolgus monkey CD25 [1],6.4 nM
same,EC50,human CD25 [16],2.73 nM
same,EC50,human CD25 [17],2.4 nM
same,EC50,human CD25 [22],2.81 nM
